Laboratory results reported in patent US20190142860A1, “NUCLEIC ACID BASED TIA-1 INHIBITORS” (Aquinnah Pharmaceuticals, Inc., priority 2015, published 2019).

Experiments:
[1] = target: Nucleolysin TIA-1 (endogenous mouse TIA1) (mouse) (UniProt P52912); test: TIA1 IP-MS, WT1 cortex
[2] = target: Nucleolysin TIA-1 (endogenous mouse TIA1) (mouse) (UniProt P52912); test: TIA1 IP-MS, WT2 cortex
[3] = target: Nucleolysin TIA-1 (endogenous mouse TIA1) (mouse) (UniProt P52912); test: TIA1 IP-MS, WT3 cortex
[4] = target: Nucleolysin TIA-1 (endogenous mouse TIA1) (mouse) (UniProt P52912); test: TIA1 IP-MS, tau KO 1 cortex
[5] = target: Nucleolysin TIA-1 (endogenous mouse TIA1) (mouse) (UniProt P52912); test: TIA1 IP-MS, tau KO 2 cortex
[6] = target: Nucleolysin TIA-1 (endogenous mouse TIA1) (mouse) (UniProt P52912); test: TIA1 IP-MS, tau KO 3 cortex

Sequence of UniProt P52912 (P52912 whole entry): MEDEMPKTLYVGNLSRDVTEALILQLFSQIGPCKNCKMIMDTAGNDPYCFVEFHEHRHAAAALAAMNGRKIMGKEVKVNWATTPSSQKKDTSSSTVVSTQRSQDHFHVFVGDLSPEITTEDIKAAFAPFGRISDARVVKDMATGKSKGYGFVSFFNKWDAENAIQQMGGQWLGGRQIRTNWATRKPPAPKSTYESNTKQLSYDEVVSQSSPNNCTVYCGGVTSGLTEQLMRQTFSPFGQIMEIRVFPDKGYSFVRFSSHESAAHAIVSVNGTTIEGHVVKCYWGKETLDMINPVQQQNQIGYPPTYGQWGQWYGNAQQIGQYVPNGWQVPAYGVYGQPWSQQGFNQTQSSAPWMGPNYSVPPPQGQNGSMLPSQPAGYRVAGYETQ

Substance | total ion current (normalized to TIA1 = 1000) [1] | total ion current (normalized to TIA1 = 1000) [2] | total ion current (normalized to TIA1 = 1000) [3] | total ion current (normalized to TIA1 = 1000) [4] | total ion current (normalized to TIA1 = 1000) [5] | total ion current (normalized to TIA1 = 1000) [6]
26S proteasome non-ATPase regulatory subunit 8 (from UniProt Q9CX56 1-353) | 80.3 | 0 | 0 | 4.11 | 0 | 0
28 kDa heat- and acid-stable phosphoprotein (from UniProt Q3UHX2 1-181) | 0 | 86 | 0 | 0 | 15.7 | 0
39S ribosomal protein L46, mitochondrial (from UniProt Q9EQI8 1-283) | 0 | 52.7 | 0 | 0 | 0 | 0
AP-2 complex subunit alpha-2 (from UniProt P17427 1-938) | 0 | 128 | 68.8 | 0 | 186 | 0
ATP synthase subunit O, mitochondrial (from UniProt Q9DB20 24-213) | 0 | 375 | 0 | 0 | 0 | 0
ATP-dependent 6-phosphofructokinase, platelet type (from UniProt Q9WUA3 1-784) | 0 | 20.2 | 0 | 0 | 67.1 | 0
Acetyl-CoA acetyltransferase, mitochondrial (from UniProt Q8QZT1 31-424) | 0 | 175 | 18.1 | 0 | 70.3 | 0
Aconitate hydratase, mitochondrial (from UniProt Q99KI0 28-780) | 0 | 818 | 164 | 0 | 421 | 0
Alpha-actinin-4 (from UniProt P57780 1-912) | 0 | 77 | 14.5 | 0 | 28.8 | 0
Amphiphysin (from UniProt Q7TQF7 1-686) | 0 | 113 | 0 | 0 | 0 | 0
Annexin A7 (from UniProt Q07076 1-463) | 0 | 42.4 | 44.8 | 0 | 71.9 | 1120
Aspartate aminotransferase, cytoplasmic (from UniProt P05201 2-413) | 0 | 204 | 17 | 0 | 136 | 0
Band 4.1-like protein 2 (from UniProt O70318 2-988) | 16.7 | 0 | 0 | 25.8 | 0 | 0
CaM kinase-like vesicle-associated protein (from UniProt Q3UHL1 1-512) | 0 | 92.1 | 0 | 0 | 0 | 0
Calcium-binding mitochondrial carrier protein Aralar1 (from UniProt Q8BH59 2-677) | 0 | 181 | 21.6 | 0 | 231 | 0
Calcium-transporting ATPase (from UniProt Q6Q477 1-1205) | 0 | 274 | 0 | 0 | 144 | 0
Carbonic anhydrase 2 (from UniProt P00920 2-260) | 0 | 38.6 | 50.1 | 0 | 58.4 | 0
Catenin beta-1 (from UniProt Q02248 2-781) | 9.46 | 0 | 0 | 123 | 0 | 0
Centromere protein V (from UniProt Q9CXS4 1-252) | 0 | 234 | 106 | 0 | 108 | 0
Clathrin heavy chain 1 (from UniProt Q68FD5 2-1675) | 0 | 58.5 | 0 | 0 | 45.2 | 0
Clathrin light chain A (from UniProt O08585 1-235) | 0 | 90.8 | 145 | 0 | 29 | 0
Cleavage and polyadenylation specificity factor subunit 6 (from UniProt Q6NVF9 1-551) | 0 | 147 | 0 | 0 | 76.2 | 0
Cluster of Phosphatidylinositol 5-phosphate 4-kinase type-2 alpha (from UniProt O70172 2-405) | 0 | 75.3 | 18.8 | 0 | 6.9 | 0
Cluster of Ras-related protein Rab-5C (from UniProt P35278 1-216) | 0 | 210 | 337 | 0 | 213 | 0
Coronin-1A (from UniProt O89053 2-461) | 0 | 74.2 | 0 | 0 | 31 | 0
Cytochrome b-c1 complex subunit 1, mitochondrial (from UniProt Q9CZ13 35-480) | 0 | 1320 | 2460 | 0 | 1030 | 0
Dihydrolipoyl dehydrogenase, mitochondrial (from UniProt O08749 36-509) | 0 | 107 | 0 | 0 | 31.3 | 0
Dihydrolipoyllysine-residue acetyltransferase component of pyruvate dehydrogenase complex, mitochondrial (from UniProt Q8BMF4 86-642) | 0 | 353 | 0 | 0 | 130 | 0
